Square brackets hold non-standard residues; d marks the D form. Ends that are not written are not given here. * marks the point of attachment. Fluorescein(5-NHCOCH2) = O=C(C*)Nc1ccc2c(c1)C(=O)OC21c2ccc(O)cc2Oc2cc(O)ccc21; pS = N[C@@H](COP(=O)(O)O)C(=O)O
Columns and labels:
HisKIX [1] = molecular target: T1, HisKIX (UniProt P45481 586-672); assay: FP, fluorescein-labelled peptide titrated with HisKIX, 25 C
T1 construct: range 586-672; the residue numbers fit mouse CBP; also called His-tagged CBP KIX domain; CBP KIX; not shown: amino-terminal hexahistidine tag and linker of pET15b
T1 sequence (P45481 586-672): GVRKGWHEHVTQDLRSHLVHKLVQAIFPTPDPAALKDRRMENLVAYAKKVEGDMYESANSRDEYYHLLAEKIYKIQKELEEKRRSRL

HisKIX [2] = molecular target: T1, HisKIX; assay: FP with HisKIX; end of the range assigned by Table 1

B1: KID-B^P (peptide)
peptide: RRP[pS]YRKILNDLSSDAPGVC(acetamidofluorescein)-NH2
notes: also called KID-B (phosphorylated); CREB KID residues 130-148
HisKIX [1]
  Kd: 51.6 µM

B2: PPKID2^P (designed binder)
peptide: H-GMSRVTPGGDDAPVRRL[pS]FFYILRDLYLDAPGVC(Fluorescein(5-NHCOCH2))-NH2
modifications: not fully specified
notes: also called PPKID2 (phosphorylated)
HisKIX [1]
  Kd: 0.729 µM

B3: PPKID2^U (designed binder)
peptide: GMSRVTPGGDDAPVRRLSFFYILRDLYLDAPGVC(acetamidofluorescein)-NH2
modifications: not fully specified
notes: also called PPKID2 (unphosphorylated)
HisKIX [1]
  Kd: 12.6 µM

B4: PPKID1^P (designed binder)
peptide: GASDMTYWGDDAPVRRL[pS]FFYILLDLYLDAPGVC(Fluorescein(5-NHCOCH2))-NH2
notes: also called PPKID1 (phosphorylated)
HisKIX [1]
  Kd: 0.591 µM
HisKIX [2]
  fold enhancement in affinity upon phosphorylation: 6 to 41 fold
  fold higher affinity than KID-B^P: 43 to 87 fold
  ΔΔG upon phosphorylation: -2.2 kcal/mol

B5: PPKID5^U (designed binder)
peptide: GLSWPTYHGDDAPVRRLSFFYILLDLYLDAPGVC(Fluorescein(5-NHCOCH2))-NH2
modifications: N-terminus assumed
SMILES: CC[C@H](C)[C@H](NC(=O)[C@H](Cc1ccc(O)cc1)NC(=O)[C@H](Cc1ccccc1)NC(=O)[C@H](Cc1ccccc1)NC(=O)[C@H](CO)NC(=O)[C@H](CC(C)C)NC(=O)[C@H](CCCNC(=N)N)NC(=O)[C@H](CCCNC(=N)N)NC(=O)[C@@H](NC(=O)[C@@H]1CCCN1C(=O)[C@H](C)NC(=O)[C@H](CC(=O)O)NC(=O)[C@H](CC(=O)O)NC(=O)CNC(=O)[C@H](Cc1c[nH]cn1)NC(=O)[C@H](Cc1ccc(O)cc1)NC(=O)[C@@H](NC(=O)[C@@H]1CCCN1C(=O)[C@H](Cc1c[nH]c2ccccc12)NC(=O)[C@H](CO)NC(=O)[C@H](CC(C)C)NC(=O)CN)[C@@H](C)O)C(C)C)C(=O)N[C@@H](CC(C)C)C(=O)N[C@@H](CC(C)C)C(=O)N[C@@H](CC(=O)O)C(=O)N[C@@H](CC(C)C)C(=O)N[C@@H](Cc1ccc(O)cc1)C(=O)N[C@@H](CC(C)C)C(=O)N[C@@H](CC(=O)O)C(=O)N[C@@H](C)C(=O)N1CCC[C@H]1C(=O)NCC(=O)N[C@H](C(=O)N[C@@H](CSCC(=O)Nc1ccc2c(c1)C(=O)OC21c2ccc(O)cc2Oc2cc(O)ccc21)C(N)=O)C(C)C
notes: also called PPKID5 (unphosphorylated)
HisKIX [1]
  Kd: 6.6 µM

B6: PPKID5^P (designed binder)
peptide: GLSWPTYHGDDAPVRRL[pS]FFYILLDLYLDAPGVC(Fluorescein(5-NHCOCH2))-NH2
modifications: N-terminus assumed
SMILES: CC[C@H](C)[C@H](NC(=O)[C@H](Cc1ccc(O)cc1)NC(=O)[C@H](Cc1ccccc1)NC(=O)[C@H](Cc1ccccc1)NC(=O)[C@H](COP(=O)(O)O)NC(=O)[C@H](CC(C)C)NC(=O)[C@H](CCCNC(=N)N)NC(=O)[C@H](CCCNC(=N)N)NC(=O)[C@@H](NC(=O)[C@@H]1CCCN1C(=O)[C@H](C)NC(=O)[C@H](CC(=O)O)NC(=O)[C@H](CC(=O)O)NC(=O)CNC(=O)[C@H](Cc1c[nH]cn1)NC(=O)[C@H](Cc1ccc(O)cc1)NC(=O)[C@@H](NC(=O)[C@@H]1CCCN1C(=O)[C@H](Cc1c[nH]c2ccccc12)NC(=O)[C@H](CO)NC(=O)[C@H](CC(C)C)NC(=O)CN)[C@@H](C)O)C(C)C)C(=O)N[C@@H](CC(C)C)C(=O)N[C@@H](CC(C)C)C(=O)N[C@@H](CC(=O)O)C(=O)N[C@@H](CC(C)C)C(=O)N[C@@H](Cc1ccc(O)cc1)C(=O)N[C@@H](CC(C)C)C(=O)N[C@@H](CC(=O)O)C(=O)N[C@@H](C)C(=O)N1CCC[C@H]1C(=O)NCC(=O)N[C@H](C(=O)N[C@@H](CSCC(=O)Nc1ccc2c(c1)C(=O)OC21c2ccc(O)cc2Oc2cc(O)ccc21)C(N)=O)C(C)C
notes: also called PPKID5 (phosphorylated)
HisKIX [1]
  Kd: 0.534 µM

B7: PPKID8^U (designed binder)
peptide: GLSWKTDPGDDAPVRRLSFFYILLDLYLDAPGVC(Fluorescein(5-NHCOCH2))-NH2
modifications: N-terminus assumed
SMILES: CC[C@H](C)[C@H](NC(=O)[C@H](Cc1ccc(O)cc1)NC(=O)[C@H](Cc1ccccc1)NC(=O)[C@H](Cc1ccccc1)NC(=O)[C@H](CO)NC(=O)[C@H](CC(C)C)NC(=O)[C@H](CCCNC(=N)N)NC(=O)[C@H](CCCNC(=N)N)NC(=O)[C@@H](NC(=O)[C@@H]1CCCN1C(=O)[C@H](C)NC(=O)[C@H](CC(=O)O)NC(=O)[C@H](CC(=O)O)NC(=O)CNC(=O)[C@@H]1CCCN1C(=O)[C@H](CC(=O)O)NC(=O)[C@@H](NC(=O)[C@H](CCCCN)NC(=O)[C@H](Cc1c[nH]c2ccccc12)NC(=O)[C@H](CO)NC(=O)[C@H](CC(C)C)NC(=O)CN)[C@@H](C)O)C(C)C)C(=O)N[C@@H](CC(C)C)C(=O)N[C@@H](CC(C)C)C(=O)N[C@@H](CC(=O)O)C(=O)N[C@@H](CC(C)C)C(=O)N[C@@H](Cc1ccc(O)cc1)C(=O)N[C@@H](CC(C)C)C(=O)N[C@@H](CC(=O)O)C(=O)N[C@@H](C)C(=O)N1CCC[C@H]1C(=O)NCC(=O)N[C@H](C(=O)N[C@@H](CSCC(=O)Nc1ccc2c(c1)C(=O)OC21c2ccc(O)cc2Oc2cc(O)ccc21)C(N)=O)C(C)C
HisKIX [1]
  Kd: 3.1 µM
HisKIX [2]
  fold enhancement in affinity over KID-AB^U: ≥ 37 fold
  fold enhancement in affinity over KID-B^U: ≥ 96 fold
  fold enhancement in affinity over peptide C^U: 7 to 14 fold

B8: PPKID4^U (designed binder)
peptide: GPSQPTYPGDDAPVRRLSFFYILLDLYLDAPGVC(Fluorescein(5-NHCOCH2))-NH2
modifications: N-terminus assumed
SMILES: CC[C@H](C)[C@H](NC(=O)[C@H](Cc1ccc(O)cc1)NC(=O)[C@H](Cc1ccccc1)NC(=O)[C@H](Cc1ccccc1)NC(=O)[C@H](CO)NC(=O)[C@H](CC(C)C)NC(=O)[C@H](CCCNC(=N)N)NC(=O)[C@H](CCCNC(=N)N)NC(=O)[C@@H](NC(=O)[C@@H]1CCCN1C(=O)[C@H](C)NC(=O)[C@H](CC(=O)O)NC(=O)[C@H](CC(=O)O)NC(=O)CNC(=O)[C@@H]1CCCN1C(=O)[C@H](Cc1ccc(O)cc1)NC(=O)[C@@H](NC(=O)[C@@H]1CCCN1C(=O)[C@H](CCC(N)=O)NC(=O)[C@H](CO)NC(=O)[C@@H]1CCCN1C(=O)CN)[C@@H](C)O)C(C)C)C(=O)N[C@@H](CC(C)C)C(=O)N[C@@H](CC(C)C)C(=O)N[C@@H](CC(=O)O)C(=O)N[C@@H](CC(C)C)C(=O)N[C@@H](Cc1ccc(O)cc1)C(=O)N[C@@H](CC(C)C)C(=O)N[C@@H](CC(=O)O)C(=O)N[C@@H](C)C(=O)N1CCC[C@H]1C(=O)NCC(=O)N[C@H](C(=O)N[C@@H](CSCC(=O)Nc1ccc2c(c1)C(=O)OC21c2ccc(O)cc2Oc2cc(O)ccc21)C(N)=O)C(C)C
notes: also called PPKID4 (unphosphorylated)
HisKIX [1]
  Kd: 12.1 µM

B9: PPKID1^U (designed binder)
peptide: GASDMTYWGDDAPVRRLSFFYILLDLYLDAPGVC(acetamidofluorescein)-NH2
notes: also called PPKID1 (unphosphorylated)
HisKIX [1]
  Kd: 24.1 µM
HisKIX [2]
  fold change in affinity against peptide C^U: 1 to 3 fold
  ΔΔG relative to peptide C^U: 0.1 kcal/mol

B10: PPKID7^U (designed binder)
peptide: GLSPYTEWGDDAPVRRLSFFYILLDLYLDAPGVC(acetamidofluorescein)-NH2
HisKIX [1]
  Kd: 2.3 µM

B11: PPKID3^P (designed binder)
peptide: H-GASPHTSSGDDAPVRRL[pS]FFDILLDLYLDAPGVC(Fluorescein(5-NHCOCH2))-NH2
modifications: not fully specified
notes: also called PPKID3 (phosphorylated)
HisKIX [1]
  Kd: 1.2 µM
HisKIX [2]
  fold enhancement in affinity upon phosphorylation: 6 to 41 fold
  fold higher affinity than KID-B^P: 43 to 87 fold
  ΔΔG upon phosphorylation: -1 kcal/mol

From patent US20110028686A1 (published 2011)
